# Data as given in the Immune Epitope Database (IEDB).
# Experiments:
# [1] = target: HLA-A*03:01; experiment: IEDB peptide-MHC binding, purified MHC/competitive/fluorescence; ≥ and ≤ were set here for values at or beyond the usual limits of such assays
# [2] = target: HLA-B*53:01; experiment: IEDB peptide-MHC binding, purified MHC/competitive/radioactivity; filed as Kd, often an IC50 or EC50 that approximates it; ≥ and ≤ were set here for values at or beyond the usual limits of such assays
# [3] = target: HLA-B*07:02; experiment: as above
# [4] = target: HLA-B*54:01; experiment: as above
# [5] = target: HLA-B*35:01; experiment: as above
# [6] = target: HLA-B*51:01; experiment: as above
# [7] = target: HLA-A*24:02; experiment: IEDB peptide-MHC binding, purified MHC/competitive/fluorescence; ≥ and ≤ were set here for values at or beyond the usual limits of such assays
# [8] = target: HLA-A*11:01; experiment: as above
# [9] = target: HLA-A*02:01; experiment: as above
# [10] = target: HLA-A*69:01; experiment: IEDB peptide-MHC binding, purified MHC/competitive/fluorescence; filed as Kd, often an IC50 or EC50 that approximates it; ≥ and ≤ were set here for values at or beyond the usual limits of such assays
# [11] = target: HLA-B*15:01; experiment: as above
# [12] = target: HLA-B*51:01; experiment: as above
# [13] = target: HLA-B*57:01; experiment: as above
# [14] = target: HLA-B*15:17; experiment: as above
# [15] = target: HLA-B*27:03; experiment: as above
# [16] = target: HLA-B*46:01; experiment: as above
# [17] = target: HLA-A*26:01; experiment: as above
# [18] = target: HLA-A*03:01; experiment: IEDB peptide-MHC binding, purified MHC/direct/fluorescence; filed as Kd, often an IC50 or EC50 that approximates it; ≥ and ≤ were set here for values at or beyond the usual limits of such assays
# [19] = target: HLA-A*29:02; experiment: as above
# [20] = target: HLA-A*24:03; experiment: as above
# [21] = target: HLA-A*02:11; experiment: as above
# [22] = target: HLA-A*02:12; experiment: as above
# [23] = target: HLA-A*02:03; experiment: as above
# [24] = target: HLA-A*02:19; experiment: as above
# [25] = target: HLA-A*02:16; experiment: as above
# [26] = target: HLA-B*08:01; experiment: IEDB peptide-MHC binding, purified MHC/competitive/fluorescence; filed as Kd, often an IC50 or EC50 that approximates it; ≥ and ≤ were set here for values at or beyond the usual limits of such assays
# [27] = target: HLA-B*39:01; experiment: as above
# [28] = target: HLA-B*35:01; experiment: as above; conditions: source organism: Yersinia pestis Antiqua
# [29] = target: HLA-A*01:01; experiment: as above
# [30] = target: HLA-B*45:06; experiment: as above
# [31] = target: HLA-B*83:01; experiment: as above
# [32] = target: HLA-B*15:42; experiment: as above
# [33] = target: HLA-A*02:01; experiment: as above
# [34] = target: HLA-A*01:01; experiment: IEDB peptide-MHC binding, purified MHC/direct/fluorescence; filed as Kd, often an IC50 or EC50 that approximates it; ≥ and ≤ were set here for values at or beyond the usual limits of such assays; conditions: source organism: Mus musculus
# [35] = target: HLA-A*29:02; experiment: IEDB peptide-MHC binding, purified MHC/competitive/fluorescence; filed as Kd, often an IC50 or EC50 that approximates it; ≥ and ≤ were set here for values at or beyond the usual limits of such assays; conditions: source organism: Streptococcus pneumoniae D39
# [36] = target: HLA-B*07:02; experiment: IEDB peptide-MHC binding, purified MHC/direct/fluorescence; filed as Kd, often an IC50 or EC50 that approximates it; ≥ and ≤ were set here for values at or beyond the usual limits of such assays
# [37] = target: HLA-A*11:01; experiment: as above; conditions: source organism: SARS-CoV1
# [38] = target: HLA-A*02:01; experiment: as above; conditions: source organism: SARS-CoV1
# [39] = target: HLA-B*18:01; experiment: IEDB peptide-MHC binding, purified MHC/competitive/fluorescence; filed as Kd, often an IC50 or EC50 that approximates it; ≥ and ≤ were set here for values at or beyond the usual limits of such assays; conditions: source organism: Kurkino virus
# [40] = target: HLA-A*68:02; experiment: IEDB peptide-MHC binding, purified MHC/direct/fluorescence; filed as Kd, often an IC50 or EC50 that approximates it; ≥ and ≤ were set here for values at or beyond the usual limits of such assays; conditions: source organism: Orthohantavirus sangassouense
# [41] = source organism: Vaccinia virus WR
# [42] = source organism: Zaire ebolavirus
# [43] = source organism: Triticum aestivum
# [44] = source organism: Orthohantavirus andesense
# [45] = source organism: Mammarenavirus machupoense
# [46] = source organism: Vaccinia virus Copenhagen
# [47] = source organism: Yersinia pestis Antiqua
# [48] = source organism: Escherichia coli 536
# [49] = source organism: SARS coronavirus Tor2
# [50] = source organism: Human herpesvirus 4 strain B95-8
# [51] = source organism: Sudan ebolavirus
# [52] = source organism: Orthohantavirus sangassouense
sequence,measurement,setting,value
VLFGLGFAI,IC50,[1]; source organism: Mus musculus,12.6 µM
LPRVVGGKTV,Kd,[2]; [41],12.4 µM
same,Kd,[3]; [41],0.000306 µM
same,Kd,[4]; [41],0.0391 µM
same,Kd,[5]; [41],≥ 28.8 µM
same,Kd,[6]; [41],0.0326 µM
VSSGKNIKR,IC50,[1]; [42],≥ 82.2 µM
same,IC50,[7]; [42],≥ 163 µM
same,IC50,[8]; [42],4.31 µM
same,IC50,[9]; [42],≥ 140 µM
QPQYSQPQQPI,Kd,[2]; [43],≥ 63.7 µM
same,Kd,[3]; [43],≥ 64 µM
same,Kd,[4]; [43],≥ 63.7 µM
same,Kd,[5]; [43],≥ 63.7 µM
same,Kd,[6]; [43],11.4 µM
TSPQSLTTK,IC50,[1]; [42],22.3 µM
same,IC50,[8]; [42],1.76 µM
IQNALEKAL,Kd,[10]; [44],≥ 20 µM
same,Kd,[11]; [44],0.197 µM
same,Kd,[12]; [44],≥ 20 µM
same,Kd,[13]; [44],≥ 20 µM
same,Kd,[14]; [44],≥ 20 µM
same,Kd,[15]; [44],≥ 20 µM
same,Kd,[16]; [44],≥ 20 µM
same,Kd,[17]; [44],≥ 20 µM
same,Kd,[18]; [44],≥ 20 µM
same,Kd,[19]; [44],≥ 20 µM
same,Kd,[20]; [44],≥ 20 µM
same,Kd,[21]; [44],≥ 20 µM
same,Kd,[22]; [44],≥ 20 µM
same,Kd,[23]; [44],≥ 20 µM
same,Kd,[24]; [44],≥ 20 µM
same,Kd,[25]; [44],≥ 20 µM
TPNQPSAEF,Kd,[2]; [45],0.565 µM
same,Kd,[3]; [45],0.076 µM
same,Kd,[4]; [45],18.7 µM
same,Kd,[5]; [45],0.0403 µM
same,Kd,[6]; [45],13 µM
VYGNIKHKE,IC50,[1]; [46],≥ 158 µM
same,IC50,[7]; [46],34.9 µM
same,IC50,[8]; [46],69.1 µM
MPARLWLCL,Kd,[26]; [47],0.383 µM
same,Kd,[27]; [47],0.108 µM
same,Kd,[28],0.0008 µM
same,Kd,[12]; [47],≥ 20 µM
FGGVPREVL,Kd,[26]; [48],≥ 20 µM
same,Kd,[27]; [48],≥ 20 µM
FLQMENLMY,Kd,[29]; source organism: Bacillus anthracis str. A0488,0.0021 µM
SVDSDHLGY,Kd,[10]; source organism: Homo sapiens,≥ 20 µM
same,Kd,[30]; source organism: Homo sapiens,≥ 5 µM
same,Kd,[27]; source organism: Homo sapiens,≥ 20 µM
same,Kd,[31]; source organism: Homo sapiens,≥ 5 µM
same,Kd,[12]; source organism: Homo sapiens,≥ 20 µM
same,Kd,[13]; source organism: Homo sapiens,≥ 20 µM
same,Kd,[32]; source organism: Homo sapiens,≥ 5 µM
same,Kd,[15]; source organism: Homo sapiens,≥ 20 µM
same,Kd,[16]; source organism: Homo sapiens,≥ 20 µM
same,Kd,[33]; source organism: Homo sapiens,≥ 20 µM
same,Kd,[34],0.0007 µM
RPTPKKMNIV,Kd,[2]; [41],≥ 69.9 µM
same,Kd,[3]; [41],0.0524 µM
same,Kd,[4]; [41],5.86 µM
same,Kd,[5]; [41],≥ 48.8 µM
same,Kd,[6]; [41],≥ 69.6 µM
GVNFNLYYY,Kd,[35],≤ 0.0001 µM
same,Kd,[29]; source organism: Streptococcus pneumoniae D39,0.021 µM
TPRDLGACI,Kd,[2]; [49],≥ 42 µM
same,Kd,[4]; [49],3.88 µM
same,Kd,[5]; [49],12.9 µM
same,Kd,[6]; [49],3.89 µM
same,Kd,[36]; source organism: SARS-CoV1,0.188 µM
same,Kd,[37],9.73 µM
same,Kd,[38],≥ 36 µM
QAFYTRVLK,IC50,[1]; [41],1.47 µM
same,IC50,[8]; [41],0.311 µM
RLKTTENSF,Kd,[26]; source organism: Influenza A virus (A/Northern Territory/60/1968(H3N2)),≥ 20 µM
DEVEFLGHY,Kd,[30]; [50],≥ 5 µM
same,Kd,[31]; [50],≥ 5 µM
same,Kd,[32]; [50],≥ 5 µM
LRRWGGTCR,IC50,[1]; [51],≥ 200 µM
same,IC50,[9]; [51],≥ 645 µM
ETLGYCMIR,IC50,[1]; [41],≥ 248 µM
same,IC50,[8]; [41],25.2 µM
SPGDNSAKF,Kd,[10]; source organism: Kurkino virus,≥ 20 µM
same,Kd,[27]; source organism: Kurkino virus,≥ 20 µM
same,Kd,[11]; source organism: Kurkino virus,≥ 20 µM
same,Kd,[12]; source organism: Kurkino virus,≥ 20 µM
same,Kd,[13]; source organism: Kurkino virus,≥ 20 µM
same,Kd,[39],≥ 20 µM
same,Kd,[14]; source organism: Kurkino virus,≥ 20 µM
same,Kd,[15]; source organism: Kurkino virus,≥ 20 µM
same,Kd,[16]; source organism: Kurkino virus,≥ 20 µM
same,Kd,[17]; source organism: Kurkino virus,≥ 20 µM
same,Kd,[33]; source organism: Kurkino virus,≥ 20 µM
same,Kd,[18]; [52],≥ 20 µM
same,Kd,[19]; [52],≥ 20 µM
same,Kd,[36]; source organism: Tanganya virus,1.96 µM
same,Kd,[40],≥ 20 µM
same,Kd,[20]; [52],≥ 20 µM
same,Kd,[21]; [52],≥ 20 µM
same,Kd,[22]; [52],≥ 20 µM
same,Kd,[23]; [52],≥ 20 µM
same,Kd,[24]; [52],≥ 20 µM
same,Kd,[25]; [52],≥ 20 µM
ENALRGVAV,Kd,[26]; source organism: Escherichia coli,0.377 µM
